Patent US20180155434A1 (UNIVERSITY OF TOYAMA, published 2018)
Residue numbers refer to the chain shown, from its start. In names and notes the source's numbering stands.

B1: H7 hIgG1 (DF) (H7-1) (antibody, V domains shown)
VH: EVQLQQSGAELGKPGTSVKLSCKVSGYNIKNTYIHWVNQRPGKGLEWIGRIDPANGNPIYAEKFKNKATLTADTSSNTAYMQLSQLKSDDTAIYFCAMHRGHSMGPGPYVMDAWGQGASVTVSS
VL: DIQMTQSPASLSASLGETVTIECRTSEDIYNGLAWYQQKPGKSPQLLIYNANSLHTGVPSRFSGSGSGTQYSLKINSLQSEDVASYCCQQYSNYPFTFGSGTKLEIK
notes: also called core fucose-deficient H7 chimeric antibody; Potelligent-type H7 chimeric antibody
B2: H7 hIgG1 (N297A) (H7-3) (antibody, V domains shown)
VH: B1 VH
VL: B1 VL
notes: Rat H7 variable regions on a human IgG1 constant region with N297A (EU index), so it lacks the N-linked sugar chain; Human kappa light chain constant region; also called N-linked sugar chain-deficient H7 chimeric antibody
B3: H7 (CS) hIgG1 (N297A) (H7-4) (antibody, V domains shown)
VH: B1 VH
VL: B1 VL with C87S
notes: H7 VL with Cys 87 replaced by Ser. Human IgG1 constant region with N297A (EU index) and human kappa constant region; also called H7 (CS) altered form
B4: H7 (CS) hIgG1 (DF) (H7-2) (antibody, V domains shown)
VH: B1 VH
VL: B1 VL with C87S
notes: Human IgG1 and human kappa constant regions, no core fucose (FUT8-/- CHO); also called Cys substitution variant H7-2; H7 (CS) altered form
B5: rtDNP-1 hIgG1 (DF) antibody (KM8808) (antibody, V domains shown)
VH: EVQLQESGPGLVKPSQSLSLTCSVTGYSITSGYWNWIRKFPGNKMEWIGYISYSGSTYYNPSLKSRISITRDTSKNQFFLQLNSVTTEDTATYYCARWGVRHYFDYWGQGVMATVSS
VL: DVVMTQTPVSLPVSLGGQASISCRSSQSLANSYGNTYLSWYLQKPGQSPQLLIYRVSNTFSGVPDRFSGSGSGTDFTLKISRVEPEDLGDYYCLQGTHQPYTFGAGTKLELK
notes: Isotype control; Rat anti-DNP variable regions on a human IgG1 constant region, no core fucose; also called core fucose-deficient anti-dinitrophenol (DNP) rat/human chimeric antibody
B6: rtDNP-1 hIgG1 (N297A) antibody (KM6161) (antibody, V domains shown)
VH: B5 VH
VL: B5 VL
notes: Isotype control; Rat anti-DNP variable regions on a human IgG1 constant region with N297A; also called N-linked sugar chain-deficient anti-DNP rat/human chimeric antibody

Biological target: T1, mouse IL-5Rα on Y16 cells (mouse, UniProt P21183 18-415)
T1 construct: whole, on cells; also called IL-5Rα chain; mouse IL-5Rα-expressing cell Y16
T1 sequence (looked up): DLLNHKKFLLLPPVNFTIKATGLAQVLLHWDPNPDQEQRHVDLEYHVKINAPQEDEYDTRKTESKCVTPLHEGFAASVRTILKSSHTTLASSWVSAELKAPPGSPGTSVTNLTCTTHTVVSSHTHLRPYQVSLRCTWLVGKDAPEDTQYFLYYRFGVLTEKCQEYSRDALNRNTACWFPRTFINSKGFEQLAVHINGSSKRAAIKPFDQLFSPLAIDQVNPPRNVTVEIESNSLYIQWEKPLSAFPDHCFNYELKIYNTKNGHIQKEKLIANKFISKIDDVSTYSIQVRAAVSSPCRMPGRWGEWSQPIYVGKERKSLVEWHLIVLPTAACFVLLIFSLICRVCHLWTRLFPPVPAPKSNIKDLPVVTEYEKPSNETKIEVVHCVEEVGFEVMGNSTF
Assay: flow cytometry on Y16 cells expressing mouse IL-5R, detection with goat F(ab')2 anti-human IgG PE, Geomean
Protocol: The chimeric antibodies prepared in Example 8 were evaluated for their antigen binding activity using a mouse-derived cell line Y16 expressing IL-5R. The Y16 cells were washed with SM (staining medium containing 2% FCS, 0.05% NaN₃, and 1 mM EDTA in PBS). Then, Mouse BD Fc Block (manufactured by Becton, Dickinson and Company) was added thereto at a concentration of 5 μg/mL, and the mixture was left standing at 4° C. for 30 min. The cells were inoculated at a cell number of 1×10⁵ cells/well to a 96-well U-bottom plate, and each chimeric antibody adjusted to a final concentration of 10000, 2500, 625, 156, 39, 10, 2.4, or 0.6 ng/mL was added thereto, followed by reaction at 4° C. for 60 min. The rat/human chimeric control antibodies used were rtDNP-1 hIgG1 (DF) antibody (KM8808) and rtDNP-1 hIgG1 (N297A) antibody (KM6161). The nucleotide sequences and amino acid sequences of the variable regions of each isotype control antibody are shown in SEQ ID NOs: 29 to 34. After washing of the cells with SM, Goat F(ab′)₂ Anti-Human IgG PE (γ chain specific) (manufactured by Southern Biotech) diluted 500-fold with SM was added thereto, followed by reaction at 4° C. for 60 min. After washing of the cells with SM, the cells were resuspended in 50 μL of SM. Fluorescence intensity was measured by FCM (flow cytometer FACS Canto II (manufactured by Becton, Dickinson and Company)). The data was analyzed using FlowJo 7.65 (manufactured by Tomy Digital Biology Co., Ltd.) to calculate a Geomean value at each concentration.

Row | Binder | EC50 (read off the curve) | binding result
1 | B1 | ~0.06 µg/mL | 
2 | B2 | ~0.06 µg/mL | 
3 | B3 | ~0.04 µg/mL | 
4 | B4 | ~0.04 µg/mL | 
5 | B5 |  | no binding (tested: 10 µg/mL)
6 | B6 |  | no binding (tested: 10 µg/mL)
